Results as given in patent US7700353B2, “Compositions and methods for inducing apoptosis in tumor cells” (E-P Therapeutics, Inc., priority 1998, dated 2010).

Experiments:
[1] = system: MDA-MB-231 cells on chicken CAM; assay: Human breast cancer cells seeded on chicken CAM; format: in vivo; conditions: single or multiple doses, five day old chicken embryos
Source text: The invasion of MDA-MB-231 cells in the chicken embryos was further confirmed by immunocytochemistry. […] The activity in the widely accepted chicken model, provides ample support for the belief that the methods of the invention can be used to treat cancer in animals as well as humans.

[2] = system: chorioallantoic membrane (CAM) of chick embryos; assay: Chick embryo chorioallantoic membrane (CAM) angiogenesis assay; format: in vivo; conditions: day 7
Description: A suitable assay is the chick embryo chorioallantoic membrane (CAM) assay described by Crum et al. Science 230:1375 (1985). See also, U.S. Pat. No. 5,001,116, hereby incorporated by reference, which describes the CAM assay. Briefly, the Ea-4 peptide (40 µg and 80 µg), endostatin (5 µg and 10 µg) and a PBS control buffer were delivered onto the chorioallantoic membrane (CAM) of three-day old chick embryos. The CAMs were photographed in ovo with a digital camera on day 7. The angiogenic response was assessed by counting the number of intersect points of the blood vessels spread out in a defined field (vessel density). […] The effect is quantified in the histogram in FIG. 17.
Each were dissolved in PBS, and various and known amounts of hEb-peptide (250 µg, 500 µg and 1000 µg respectively) and human endostatin (10 µg and 20 µg respectively) were applied to the CAM. Pictures were taken on day 7 for vessel density determination.

[3] = system: SK-N-F1 neuroblastoma cells; assay: Neurite-like process outgrowth / morphological differentiation; format: cell-based, human
Description: Cells under various treatment conditions were maintained at 37° C. in a 5% CO2 incubator and observed from 30 minutes to 72 hours after incubation (synthetic human Ea- and Eb-peptide were chemically synthesized at the Biotechnology Center, University of Connecticut). For treatment with synthetic hEa, hEb peptide or hlGF-I, 1×10^5 cells were plated in each well of a 12-well culture plate in DMEM/F12 (1:1) supplemented with 0.4-3.2 µM of synthetic hEa-, hEb-peptide and/or 5-10 nM of hlGF-I.
Neuroblastoma SK-N-F1 cells (10^5) were seeded into 12-well culture plates in DMEM/F12 (1:1) supplemented with 0-3.2 µM of synthetic hEb-peptide, or buffer control, and incubated at 37° C. in a 5% CO2 humidified incubator.
Cell images were taken by random sampling at various time points using a MicroMAX CCD camera (Princeton Instruments, Bozeman, Mont.). Approximately 1000 cells were analyzed from each treatment, carried out in triplicate. Cells with neurites longer than one cell body diameter (>20 µm for SK-N-F1 cells) were scored as positive neurite-bearing (Fagerstrom, et al., Cell Growth Differ., 7: 775-85, 1996; Morrione, et al., Cancer Res. 60: 2263-72, 2000). The percentage of neurite-bearing cells and the respective length of neurites were measured with reference to a stage micrometer and analyzed using the public domain NIH Image program (developed at the U.S. National Institutes of Health and available on the Internet at http://rsb.info.nih.gov/nih-image).
To further characterize the dose-response relationship and time course of hEb peptide in inducing neurite-like process outgrowth, SK-N-F1 neuroblastoma cells were treated with various amounts (0 to 3.2 µM) of hEb peptide over a course of 72 hours. Images of cells were taken by random sampling after 1 h, 6 h, 24 h, 48 h and 72 h of incubation (see FIG. 11B). The average length of neurite-like process outgrowth was measured by random sampling of more than 1000 cells at various time points. The neurite-like processes started to be visible as early as 0.5-1 hour after the addition of hEb peptide. The effect of hEb peptide in inducing neurite-like outgrowth was dose-dependent, as evident from a comparison of cells treated with 0.4 µM hEb peptide with those treated with 0.8-3.2 µM hEb peptide over 24-72 hours. The maximum effect of hEb peptide was observed 48 hours after the addition of 3.2 µM hEb peptide, with an average neurite length of 50 to 60 µm (Table 1, below).

MDA-MB-231 (C) cells = assay: Apoptosis observed under microscope; format: cell-based, human; conditions: about 1.5 μM, about two hours
Description: FIG. 21 depicts apoptosis in MDA-MB-231 cells induced by rtEa4-peptide. MDA-MB-231 cells treated with about 1.5 μM of rtEa4-peptide (A, B, and C) or control peptide (D) for about two hours and observed under a microscope. Arrows indicate apoptotic cells.
Killing of cancer cells by E-peptide could be the consequence of apoptosis or necrosis. To differentiate these two possibilities, MDA-MB-231 (C) cells were grown in culture in the presence of about 1.5 μM of trout Ea4-peptide. After about two hours of incubation the cells were observed under a microscope. […] FIG. 22 presents the results of the effect of trout Ea4-peptide on induction of apoptosis in ovarian cancer cells (SKOV-3).

[4] = system: ZR75-1 and MDA-MB 231 cell lines (single-cell clones); assay: Morphological change in single-cell malignant clones; format: cell-based, human
Description: Because each of these tumor cell lines obtained from ATCC contains a mixed population of tumorous and nontumorous cells, only between 25-40% of the cells from each cell line responded to induction by rtEa-4-peptide. […] About 1 -2×10^5 cells resuspended in their respective basal medium without FBS were plated in a 6-well culture chamber. Different amounts of trout Ea-4-peptide (0.4 µM, 0.8 µM and 1.6 µM) or control protein (1.6 µM) were added to the wells, and the cell cultures were incubated at 37° C. under a humidified atmosphere of 5% CO2. Twenty-four hours after initiation of the treatment, cells were observed under an Olympic inverted microscope equipped with phase contrast objective lenses (200× magnification).

B1: hEb: chemically synthesized human Eb peptide of pro-IGF-I, 77 amino acid residues (SEQ ID NO:1) (peptide, listed as Homo sapiens)
chain: RSVRAQRHTDMPKTQKYQPPSTNKNTKSQRRKGWPKTHPGGEQKEGTEASLQIRGKKKEQRREIGSRNAECRGKKGK
- growth and invasion of MDA-MB-231 cells and induction of blood vessel formation on chicken CAM [1]: inhibited
- vessel density ([2]; 250, 500 and 1000 μg on CAM): dose-dependent reduction
- Neurite length ([3]; 0.4 μM, 6 h): 31 ± 7.6 μm
- Neurite length ([3]; 0.4 μM, 24 h): 29 ± 5.2 μm
- Neurite length ([3]; 0.4 μM, 48 h): 35 ± 0.9 μm
- Neurite length ([3]; 0.4 μM, 72 h): 32 ± 3.1 μm
- Neurite length ([3]; 0.8 μM, 2 h): 33 ± 2.1 μm
- Neurite length ([3]; 0.8 μM, 6 h): 36 ± 0.6 μm
- Neurite length ([3]; 0.8 μM, 24 h): 38 ± 3.9 μm
- Neurite length ([3]; 0.8 μM, 48 h): 43 ± 1.0 μm
- Neurite length ([3]; 0.8 μM, 72 h): 41 ± 2.5 μm
- morphological change ([3]; 1.6 μM or 3.2 μM): differentiated into a neuron-like morphology
- Neurite length ([3]; 1.6 μM, 6 h): 38 ± 3.5 μm
- Neurite length ([3]; 1.6 μM, 24 h): 39 ± 1.8 μm
- Neurite length ([3]; 1.6 μM, 48 h): 47 ± 3.9 μm
- Neurite length ([3]; 1.6 μM, 72 h): 48 ± 2.8 μm
- Neurite length ([3]; 3.2 μM, 6 h): 39 ± 2.2 μm
- Neurite length ([3]; 3.2 μM, 24 h): 45 ± 1.7 μm
- Neurite length ([3]; 3.2 μM, 48 h): 52 ± 3.7 μm
- Neurite length ([3]; 3.2 μM, 72 h): 48 ± 2.7 μm
- time at which neurite-like processes started to be visible ([3]; after addition of peptide): 0.5 to 1 h
- increase in the percentage of neurite-bearing cells ([3]; hEb-peptide combined with mature hIGF-I, 1-4 hours after stimulation): 20-30%
- in vitro effective concentration ([3]; synthetic peptide): 0.4 to 3.2 µM

B2: rtEa-4: recombinant Ea-4 peptide of rainbow trout pro-IGF-I, 74 amino acid residues (SEQ ID NO: 2) (protein)
chain: RSVRAQRHTDMPRTPKVSTAVQNVDRGTERRTAQHPDKTKTKKKPLSGHSHPSCKEVHQKNSSRGNTGGRNYRM
modifications: Oncorhynchus mykiss
- growth and invasion of MDA-MB-231 cells and induction of blood vessel formation on chicken CAM [1]: inhibited
- blood vessel branching ([2]; 40 μg and 80 μg on CAM of three-day old chick embryos): inhibitory effect
- apoptosis (microscopy) (MDA-MB-231 (C) cells): going through apoptosis
- extent of the morphological change ([4]; 0.4 to 1.6 μM): proportional to the amounts
- cells responsive to treatment ([4]; purified single-cell clones, 0.4-1.6 μM, 24 hours): ~95%
